Data: PMC6326779 (2018)

Biological target: T1, CRBN (Homo sapiens, UniProt Q96SW2)
T1 chain: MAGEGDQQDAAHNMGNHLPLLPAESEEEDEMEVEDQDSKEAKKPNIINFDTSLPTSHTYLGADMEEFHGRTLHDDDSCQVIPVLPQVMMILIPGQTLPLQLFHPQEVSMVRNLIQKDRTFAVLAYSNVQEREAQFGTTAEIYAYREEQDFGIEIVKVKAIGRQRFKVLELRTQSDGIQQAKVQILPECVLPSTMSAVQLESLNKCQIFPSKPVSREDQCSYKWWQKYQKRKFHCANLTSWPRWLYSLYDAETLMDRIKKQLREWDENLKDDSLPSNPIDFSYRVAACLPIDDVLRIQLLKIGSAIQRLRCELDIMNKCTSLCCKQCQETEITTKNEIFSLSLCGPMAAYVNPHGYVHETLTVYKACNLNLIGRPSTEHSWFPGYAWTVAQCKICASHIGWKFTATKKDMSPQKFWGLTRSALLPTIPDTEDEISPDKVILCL
Test: TR-FRET

Ki: 165 nM
B1: IKZF1 ZF2-ZF3 143-243(Δ197-238) (protein)
chain: RPFQCNQCGASFTQKGNLLRHIKLHSGEKPFKCHLCNYACRRRDALTGHLRTHSVGKPHKCGYCGRSYKQRSSLEEHKERCHNYLESMGLPGTLYPVIKEE
modifications: pomalidomide
